T1: human Nectin-4 expressed on cells (human, UniProt Q96NY8 32-510)
T1 sequence: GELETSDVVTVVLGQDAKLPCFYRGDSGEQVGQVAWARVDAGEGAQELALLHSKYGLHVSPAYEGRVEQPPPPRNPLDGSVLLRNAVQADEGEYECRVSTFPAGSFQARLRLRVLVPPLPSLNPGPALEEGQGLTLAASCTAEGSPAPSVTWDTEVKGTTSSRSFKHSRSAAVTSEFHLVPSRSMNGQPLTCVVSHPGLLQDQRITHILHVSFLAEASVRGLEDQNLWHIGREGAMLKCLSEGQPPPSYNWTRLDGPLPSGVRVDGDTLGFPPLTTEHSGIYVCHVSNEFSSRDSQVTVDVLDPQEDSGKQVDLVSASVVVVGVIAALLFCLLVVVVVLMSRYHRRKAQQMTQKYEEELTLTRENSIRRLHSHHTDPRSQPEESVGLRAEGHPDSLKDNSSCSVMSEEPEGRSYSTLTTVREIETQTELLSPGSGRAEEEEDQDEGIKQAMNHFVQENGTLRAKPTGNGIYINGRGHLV

T2: human Nectin-4 (Homo sapiens, UniProt Q96NY8)
T2 sequence (Q96NY8 32-510): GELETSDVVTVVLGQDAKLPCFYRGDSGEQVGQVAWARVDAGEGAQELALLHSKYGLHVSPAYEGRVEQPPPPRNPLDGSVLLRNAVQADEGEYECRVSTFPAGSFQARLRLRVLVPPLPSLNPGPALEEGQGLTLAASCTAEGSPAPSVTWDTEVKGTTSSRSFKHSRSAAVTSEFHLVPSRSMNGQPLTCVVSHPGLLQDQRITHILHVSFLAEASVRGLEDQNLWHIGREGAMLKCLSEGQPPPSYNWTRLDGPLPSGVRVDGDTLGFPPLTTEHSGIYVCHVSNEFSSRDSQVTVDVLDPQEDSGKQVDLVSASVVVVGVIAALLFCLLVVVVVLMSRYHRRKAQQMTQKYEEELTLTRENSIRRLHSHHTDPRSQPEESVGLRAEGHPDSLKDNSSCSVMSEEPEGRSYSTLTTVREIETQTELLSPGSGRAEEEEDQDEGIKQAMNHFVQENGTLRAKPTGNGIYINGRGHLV


Columns and labels:
[1] = target: T1, human Nectin-4 expressed on cells; assay: cell-based or functional assay
human Nectin-4 = target: T2, human Nectin-4; assay: Binding to human Nectin-4 by SPR; details: for ka: SPR association constant; for kd: SPR dissociation constant; for Kd: SPR, human IgG1 isotype antibodies
Experimental: (§1) The antibodies in Table 3 of Example 3 were cloned as human IgG1 isotype antibodies, produced and purified, then tested for binding to human Nectin-4. Affinity of the 16 humanized variants, as well as their association and dissociation constants were assessed by SPR analysis. Table 4 summarizes all the calculated constants (Affinity constant KD (nM), association constant ka (1/Ms) and dissociation constant kd (1/s)).
as §1, with “Table 6” for “Table 3”, “Example 5” for “Example 3”, “Table 7” for “Table 4”

[2] = target: human Nectin-4 (protein used in the SPR affinity measurements) (human) (UniProt Q96NY8); assay: SPR, human IgG1
[3] = target: T1, human Nectin-4 expressed on cells; assay: flow cytometry on SUM190 cells, MedFI at saturation
Experimental: The humanized antibodies in Table 3 of Example 3 and in Table 6 of Example 5 were cloned, produced and purified, then tested for binding to Nectin-4 expressing cells by flow cytometry. Binding of humanized variants in human IgG1 format was determined on the SUM190 cell line expressing high levels of Nectin-4.

[4] = target: T1, human Nectin-4 expressed on cells; assay: cell-based or functional assay; remark: listed apart in the source

Molecule	internalization efficiency on MDA-MB-468, normalized to chimeric parental antibody (Fab-ZAP, CTG), first column [1]	internalization efficiency on MDA-MB-468, normalized to chimeric parental antibody (Fab-ZAP, CTG), second column [1]	ka (human Nectin-4; second set (Table 7)) [M⁻¹ s⁻¹]	kd (human Nectin-4; second set (Table 7)) [s⁻¹]	Kd (human Nectin-4; second set (Table 7)) [nM]	Kd [2] [nM]	koff [2] [s⁻¹]	kon [2] [M⁻¹ s⁻¹]	Max MedFi [3] [MedFI]	internalization efficiency on SUM190, normalized to chimeric parental antibody (Fab-ZAP, CTG), experiment 1 [4]	internalization efficiency on SUM190, normalized to chimeric parental antibody (Fab-ZAP, CTG), experiment 2 [4]	ka (human Nectin-4; first set (Table 4)) [M⁻¹ s⁻¹]	kd (human Nectin-4; first set (Table 4)) [s⁻¹]	Kd (human Nectin-4; first set (Table 4)) [nM]
H4L1 (antibody, human IgG1, V domains shown, human IgG1 isotype) VH: QVQLVQSGAEVKKPGASVKVSCKASGYIFTSYWMHWVKQAPGQGLEWMGEIDPSDSYTNYNQKFKGRVTMTLDKSTSTTYMELSSLRSEDTAVYYCARGYGNYGDYWGQGTLVTVSS VL: DVVMTQSPLSLPVTPGEPASISCRSSKSLLHSNGITYLYWYLQKPGQSPQLLIYQMSNLASGVPDRFSSSGSGTDFTLKISRVEAEDVGVYYCAQNLELPWTFGGGTKVEIK	31 % of chimeric parental	31 % of chimeric parental	310000 ± 30000	0.0059 ± 0.0003	19.5 ± 0.8	19.5	0.0059	310000	18400	73.5 % of chimeric parental	72.6 % of chimeric parental			
H0L0 (antibody, human IgG1, V domains shown, human IgG1 isotype; also called HOLO; humanized 5E7 variant H0L0) VH: QVQLVQSGAEVKKPGASVKVSCKASGYTFTSYWMHWVRQAPGQGLEWMGEIDPSDSYTNYNQKFKGRVTMTRDTSTSTVYMELSSLRSEDTAVYYCARGYGNYGDYWGQGTLVTVSS VL: DIVMTQSPLSLPVTPGEPASISCRSSKSLLHSNGITYLYWYLQKPGQSPQLLIYQMSNLASGVPDRFSGSGSGTDFTLKISRVEAEDVGVYYCAQNLELPWTFGGGTKVEIK	-36.2 % of chimeric parental	-36.2 % of chimeric parental	170000	0.014	80.2	80.2	0.014	170000	15500	65.9 % of chimeric parental	35.4 % of chimeric parental	170000	0.014	80.2
H1L0 (antibody, human IgG1, V domains shown, human IgG1 isotype) VH: QVQLVQSGAEVKKPGASVKVSCKASGYTFTSYWMHWVRQAPGQGLEWMGEIDPSDSYTNYNQKFKGRVTMTLDTSTSTTYMELSSLRSEDTAVYYCARGYGNYGDYWGQGTLVTVSS VL: DIVMTQSPLSLPVTPGEPASISCRSSKSLLHSNGITYLYWYLQKPGQSPQLLIYQMSNLASGVPDRFSGSGSGTDFTLKISRVEAEDVGVYYCAQNLELPWTFGGGTKVEIK	-7.4 % of chimeric parental	-7.4 % of chimeric parental				67.3	0.0072	110000	17300	83.7 % of chimeric parental	58.6 % of chimeric parental	110000	0.0072	67.3
H2L0 (antibody, human IgG1, V domains shown, human IgG1 isotype) VH: QVQLVQSGAEVKKPGASVKVSCKASGYTFTSYWMHWVRQAPGQGLEWMGEIDPSDSYTNYNQKFKGRVTMTLDKSTSTTYMELSSLRSEDTAVYYCARGYGNYGDYWGQGTLVTVSS VL: DIVMTQSPLSLPVTPGEPASISCRSSKSLLHSNGITYLYWYLQKPGQSPQLLIYQMSNLASGVPDRFSGSGSGTDFTLKISRVEAEDVGVYYCAQNLELPWTFGGGTKVEIK	-35.5 % of chimeric parental	-35.5 % of chimeric parental				46.4	0.0062	130000	16700	74.2 % of chimeric parental	61.8 % of chimeric parental	130000	0.0062	46.4

Next, values leading:

internalization efficiency on MDA-MB-468, normalized to chimeric parental antibody (Fab-ZAP, CTG), first column [1]	internalization efficiency on MDA-MB-468, normalized to chimeric parental antibody (Fab-ZAP, CTG), second column [1]	ka (human Nectin-4; second set (Table 7)) [M⁻¹ s⁻¹]	kd (human Nectin-4; second set (Table 7)) [s⁻¹]	Kd (human Nectin-4; second set (Table 7)) [nM]	Kd [2] [nM]	koff [2] [s⁻¹]	kon [2] [M⁻¹ s⁻¹]	Max MedFi [3] [MedFI]	internalization efficiency on SUM190, normalized to chimeric parental antibody (Fab-ZAP, CTG), experiment 1 [4]	internalization efficiency on SUM190, normalized to chimeric parental antibody (Fab-ZAP, CTG), experiment 2 [4]	ka (human Nectin-4; first set (Table 4)) [M⁻¹ s⁻¹]	kd (human Nectin-4; first set (Table 4)) [s⁻¹]	Kd (human Nectin-4; first set (Table 4)) [nM]	Molecule
87.8 % of chimeric parental	87.8 % of chimeric parental				21.5	0.0053	250000	27100	82.8 % of chimeric parental	74.9 % of chimeric parental				H5L3 (antibody, human IgG1, kappa, V domains shown, Tested as human IgG1) VH: QVQLVQSGAEVKKPGASVKVSCKASGYIFTSYWMHWVKQRPGQGLEWMGEIDPSDSYTNYNQKFKGRVTMTLDKSTSTTYMELSSLRSEDTAVYYCARGYGNYGDYWGQGTLVTVSS VL: DVVMTQSALSNPVTPGEPASISCRSSKSLLHSNGITYLYWYLQKPGQSPQLLIYQMSNLASGVPDRFSSSGSGTDFTLKISRVEAEDVGVYYCAQNLELPWTFGGGTKVEIKR
48.2 % of chimeric parental	48.2 % of chimeric parental				22	0.0087	400000	17200	82.1 % of chimeric parental	41 % of chimeric parental	400000 ± 30000	0.0087 ± 0.0004	22 ± 0.4	H3L1 (antibody, human IgG1, V domains shown, human IgG1 isotype) VH: QVQLVQSGAEVKKPGASVKVSCKASGYIFTSYWMHWVRQAPGQGLEWMGEIDPSDSYTNYNQKFKGRVTMTLDKSTSTTYMELSSLRSEDTAVYYCARGYGNYGDYWGQGTLVTVSS VL: DVVMTQSPLSLPVTPGEPASISCRSSKSLLHSNGITYLYWYLQKPGQSPQLLIYQMSNLASGVPDRFSSSGSGTDFTLKISRVEAEDVGVYYCAQNLELPWTFGGGTKVEIK
13.7 % of chimeric parental	13.7 % of chimeric parental				25.9	0.0081	310000	22900	69.8 % of chimeric parental	45.5 % of chimeric parental	310000	0.0081	25.9	H3L2 (antibody, human IgG1, V domains shown, human IgG1 isotype) VH: QVQLVQSGAEVKKPGASVKVSCKASGYIFTSYWMHWVRQAPGQGLEWMGEIDPSDSYTNYNQKFKGRVTMTLDKSTSTTYMELSSLRSEDTAVYYCARGYGNYGDYWGQGTLVTVSS VL: DVVMTQSPLSNPVTPGEPASISCRSSKSLLHSNGITYLYWYLQKPGQSPQLLIYQMSNLASGVPDRFSSSGSGTDFTLKISRVEAEDVGVYYCAQNLELPWTFGGGTKVEIK
1.2 % of chimeric parental	1.2 % of chimeric parental				35.8	0.0041	110000	17600	81.4 % of chimeric parental	69.7 % of chimeric parental	110000	0.0041	35.8	H3L0 (antibody, human IgG1, V domains shown, human IgG1 isotype) VH: QVQLVQSGAEVKKPGASVKVSCKASGYIFTSYWMHWVRQAPGQGLEWMGEIDPSDSYTNYNQKFKGRVTMTLDKSTSTTYMELSSLRSEDTAVYYCARGYGNYGDYWGQGTLVTVSS VL: DIVMTQSPLSLPVTPGEPASISCRSSKSLLHSNGITYLYWYLQKPGQSPQLLIYQMSNLASGVPDRFSGSGSGTDFTLKISRVEAEDVGVYYCAQNLELPWTFGGGTKVEIK
43.8 % of chimeric parental	43.8 % of chimeric parental				27	0.007	260000	23800	65.3 % of chimeric parental	59.6 % of chimeric parental	260000	0.007	27	H3L3 (antibody, human IgG1, V domains shown, human IgG1 isotype) VH: QVQLVQSGAEVKKPGASVKVSCKASGYIFTSYWMHWVRQAPGQGLEWMGEIDPSDSYTNYNQKFKGRVTMTLDKSTSTTYMELSSLRSEDTAVYYCARGYGNYGDYWGQGTLVTVSS VL: DVVMTQSALSNPVTPGEPASISCRSSKSLLHSNGITYLYWYLQKPGQSPQLLIYQMSNLASGVPDRFSSSGSGTDFTLKISRVEAEDVGVYYCAQNLELPWTFGGGTKVEIK

Source: patent US20250297004A1, “NECTIN-4 BINDING AGENTS” (INNATE PHARMA, priority 2022, published 2025)
